From paper PMC6586363

Target: recombinant human PKM2, wild type (human) (UniProt P14618)
Assay: native gel or EMSA; blue native gel electrophoresis of recombinant PKM2 (WT or mutant) or PKM1, alone or with FBP and/or scFv 5; resolves dimer and tetramer forms

Sequence of recombinant human PKM2, wild type, P14618 1-531 (enzyme; other documents disagree on this pair) (P14618 whole entry): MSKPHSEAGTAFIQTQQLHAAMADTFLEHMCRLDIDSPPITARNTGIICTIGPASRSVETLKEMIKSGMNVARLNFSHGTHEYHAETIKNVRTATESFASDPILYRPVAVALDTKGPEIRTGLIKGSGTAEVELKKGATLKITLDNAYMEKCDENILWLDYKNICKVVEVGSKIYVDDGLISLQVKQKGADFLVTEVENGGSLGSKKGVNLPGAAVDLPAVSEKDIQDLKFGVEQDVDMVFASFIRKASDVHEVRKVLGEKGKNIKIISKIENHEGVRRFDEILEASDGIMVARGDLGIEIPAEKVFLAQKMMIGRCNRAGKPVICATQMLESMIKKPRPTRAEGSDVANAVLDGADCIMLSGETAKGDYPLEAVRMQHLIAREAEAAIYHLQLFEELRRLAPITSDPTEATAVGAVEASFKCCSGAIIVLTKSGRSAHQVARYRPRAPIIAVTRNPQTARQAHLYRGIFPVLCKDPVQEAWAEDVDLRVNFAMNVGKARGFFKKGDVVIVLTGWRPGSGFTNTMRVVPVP

Substance: recombinant human PKM2, wild type, P14618 1-531 (enzyme; other documents disagree on this pair)
- stoichiometry N: 2
